Assay results as given in paper PMC9775377, “The High-Resolution Structure Reveals Remarkable Similarity in PD-1 Binding of Cemiplimab and Dostarlimab, the FDA-Approved Antibodies for Cancer Immunotherapy” (Biomedicines, 2022).

Target: T1, extracellular domain of human PD-1 (aa 26-150) (human, UniProt Q15116)
T1 construct: Programmed cell death-1 (PD-1), human, extracellular domain, aa 26-150; any point mutation of the construct would be told there or in PDB 8GY5; also called Programmed cell death-1; ectodomain of PD-1
T1 sequence (Q15116 26-150): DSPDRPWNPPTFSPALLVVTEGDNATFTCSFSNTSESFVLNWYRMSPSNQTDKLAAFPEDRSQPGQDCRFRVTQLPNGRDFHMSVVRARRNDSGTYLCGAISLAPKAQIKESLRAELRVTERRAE
Assay: crystal structure; Fab mixed with PD-1 at a molar ratio of 1:1.2, complex purified by gel filtration (20 mM Tris pH 7.5, 200 mM NaCl); hanging-drop vapor diffusion, 0.1 M sodium HEPES pH 7.5, 5% PEG 3350, 20 °C; 1.98 Å, two copies of the complex in the asymmetric unit
Details: both partners purified

B1: cemiplimab Fab (Fab, V domains shown)
VH: EVQLLESGGVLVQPGGSLRLSCAASGFTFSNFGMTWVRQAPGKGLEWVSGISGGGRDTYFADSVKGRFTISRDNSKNTLYLQMNSLKGEDTAVYYCVKWGNIYFDYWGQGTLVTVSS
VL: DIQMTQSPSSLSASVGDSITITCRASLSINTFLNWYQQKPGKAPNLLIYAASSLHGGVPSRFSGSGSGTDFTLTIRTLQPEDFATYYCQQSSNTPFTFGPGTVVDFR
notes: heavy chain of the cemiplimab Fab; in PDB 8GY5 (deposited here); light chain (kappa) of the cemiplimab Fab; Cemiplimab is a fully human IgG4 (S228P) kappa antibody; also called Fab fragment of cemiplimab; LIBTAYO
binding result: binds
